Results from article PMC10505172, “Discovery and pharmacophoric characterization of chemokine network inhibitors using phage-display, saturation mutagenesis and computational modelling” (Nature Communications, 2023).

Legend:
[1] = molecular target: T1, CXCL6 (Homo sapiens, UniProt P80162); assay: CXCL6-induced Jurkat CXCR1 (J:CXCR1) migration (chemotaxis); format: cell-based; details: HD2, HD2SCR and EVA4 at 10 μM, chemokine at EC80, J:CXCR1 cells, n = 3 biological replicates, Dunnett's test
T1 construct: purchased Peprotech 300-41
Method: For THP1 migration assays, 300000 cells/well were added to the top chamber of a 5-µm 96-well Transwell insert (3387, Corning) in 50 µL of cell migration media (RPMI-1640 (R0883, Sigma), 0.5% FBS (F9665, Sigma), 4 mM L-Glutamine (G7513, Sigma), 0.05% DMSO (D4540, Sigma)). The bottom chamber contained 150 µL of migration media with chemokine and peptide added. Cells were migrated at 37 °C in 5% CO2 for 4 h.
J:CXCR1 migration assays were performed exactly as for THP1 assays except that a 3-µm Transwell insert (3385, Corning) was used.
Following the migration assay the migration plate was shaken at 850 RPM for 10 min, and media from bottom plate transferred to a round-bottomed 96 well plate (353910, Falcon). Cell counts were determined using an Atune NxT Flow Cytometer Plate Reader with Cytkick autosampler (ThermoFisher), based on cell size parameters FSC-H/SSC-H, and a previously defined gate setting for each cell type (Supplementary Fig. 11). […] Statistical significances between control and experimental groups was evaluated using Dunnett’s test[73]. […] EC80 was calculated by fitting a chemokine dose-response curve with a 3-parameter log-logistic model (fixing the top to 100%) using the function “drm” in R-package drc[74]. IC50 was calculated by fitting an inhibitor response curve with a 4-parameter log-logistic model using the function “drm” in R-package drc[74]. […]

[2] = molecular target: T2, CXCL10 (Homo sapiens, UniProt P02778); assay: CXCL10-induced activated T cell (ATC) migration (chemotaxis); format: cell-based; details: HD2, HD2SCR and EVA4 at 20 μM (Fig. 6i), activated T cells, n = 3 biological replicates
T2 construct: purchased Peprotech 300-12
Method: For activated-T cell migration assays, 100000 cells/well were added to the top chamber of a 3-µm Transwell insert (3385, Corning) in 50 µL of migration media (HBSS (14025-092, Life Technologies), 0.1% protease free bovine serum albumin (A7030, Sigma), 0.05% DMSO (D4540, Sigma)). The bottom chamber contained 150 µL of migration media with chemokine and peptide added. Cells were migrated at 37 °C in 5% CO2 for 2 h.
Following the migration assay the migration plate was shaken at 850 RPM for 10 min, and media from bottom plate transferred to a round-bottomed 96 well plate (353910, Falcon). Cell counts were determined using an Atune NxT Flow Cytometer Plate Reader with Cytkick autosampler (ThermoFisher), based on cell size parameters FSC-H/SSC-H, and a previously defined gate setting for each cell type (Supplementary Fig. 11). All experiments were performed as three technical and three biological replicates. Statistical significances between control and experimental groups was evaluated using Dunnett’s test[73]. IC50 experiments were performed at the EC80 dose of chemokine. EC80 was calculated by fitting a chemokine dose-response curve with a 3-parameter log-logistic model (fixing the top to 100%) using the function “drm” in R-package drc[74]. IC50 was calculated by fitting an inhibitor response curve with a 4-parameter log-logistic model using the function “drm” in R-package drc[74]. […]

B1: EVA4: parental tick class A evasin, mature peptide residues 24–127 with N-terminal His-tag, expressed in HEK293F cells (protein)
chain: EVPQMTSSSAPDLEEEDDYTAYAPLTCYFTNSTLGLLAPPNCSVLCNSTTTWFNETSPNNASCLLTVDFLTQDAILQENQPYNCSVGHCDNGTCAGPPRHAQCW
modifications: left off: 8xHis, N-terminal, state not stated
notes: parental tick class A evasin, mature peptide residues 24–127 with N-terminal His-tag, expressed in HEK293F cells
effect on chemokine-induced cell migration [1]: did not inhibit | effect on chemokine-induced cell migration [2]: did not inhibit
